Test results from US20250122306A1 (SUTRO BIOPHARMA, published 2025).
Substitutions are numbered along the chain they refer to.

B1: SRP2900-A11 (antibody, IgG1, V domains shown)
VH: EVQLVESGGGLVQPGGSLRLSCAASGFTITDYVIHWVRQAPGKGLEWVGYIDPSNGYTYYADSVKGRFTISADTSKNTAYLQMNSLRAEDTAVYYCARDDQSFTSPFDYWGQGTLVTVSS
VL: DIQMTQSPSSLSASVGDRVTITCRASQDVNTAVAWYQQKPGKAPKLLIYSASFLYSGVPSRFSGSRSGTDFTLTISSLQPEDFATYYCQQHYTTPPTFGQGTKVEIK
B2: SRP2900-D06 (antibody, IgG1, V domains shown)
VH: B1 VH with T30S, V33W, S54Q, Y57W, D100Y, Q101G, F103L, S105I, P106N, F107L
VL: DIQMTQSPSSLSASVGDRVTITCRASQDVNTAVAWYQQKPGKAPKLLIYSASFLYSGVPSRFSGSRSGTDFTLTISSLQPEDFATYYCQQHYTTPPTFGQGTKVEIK
B3: SRP2900-D07 (antibody, IgG1, V domains shown)
VH: B1 VH with T30S, V33W, K76R, D100Y, Q101G, F103L, T104E, S105V, P106S, F107L
VL: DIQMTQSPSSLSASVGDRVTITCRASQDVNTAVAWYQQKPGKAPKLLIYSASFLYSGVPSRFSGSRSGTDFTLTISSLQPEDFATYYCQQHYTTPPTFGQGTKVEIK
B4: SRP2900-D08 (antibody, IgG1, V domains shown)
VH: B1 VH with T30S, V33W, S54Y, D100Y, Q101G, F103L, T104E, S105V, P106S, F107L
VL: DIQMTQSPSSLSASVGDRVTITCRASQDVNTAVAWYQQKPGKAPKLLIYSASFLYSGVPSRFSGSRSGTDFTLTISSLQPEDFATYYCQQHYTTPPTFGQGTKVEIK
B5: SRP2900-E01 (antibody, IgG1, V domains shown)
VH: B1 VH with T30S, V33W, D100Y, Q101G, F103L, T104Q, S105V, P106F, F107I
VL: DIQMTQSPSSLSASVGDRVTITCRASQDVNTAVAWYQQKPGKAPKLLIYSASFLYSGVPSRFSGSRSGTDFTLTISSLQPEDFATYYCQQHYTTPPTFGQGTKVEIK
B6: SRP2900-A08 (antibody, IgG1, V domains shown)
VH: EVQLVESGGGLVQPGGSLRLSCAASGFTLTGYWIHWVRQAPGKGLEWVGYIDPYNGATYYADSVKGRFTISADTSKNTAYLQMNSLRAEDTAVYYCARADYYYVDEYWDYWGQGTLVTVSS
VL: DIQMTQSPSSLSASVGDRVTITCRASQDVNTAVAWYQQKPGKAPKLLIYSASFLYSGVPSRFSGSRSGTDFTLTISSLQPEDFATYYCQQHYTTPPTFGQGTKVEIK
B7: SRP2900-B02 (antibody, IgG1, V domains shown)
VH: B6 VH with L11S, L29I, T30S, G31D
VL: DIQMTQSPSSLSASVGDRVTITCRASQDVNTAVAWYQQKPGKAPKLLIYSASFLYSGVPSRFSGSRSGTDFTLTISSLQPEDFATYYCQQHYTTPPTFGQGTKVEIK
B8: SRP2900-A01 (antibody, IgG1, V domains shown)
VH: B6 VH with L29I, T30S, G31S, E46K, W108F
VL: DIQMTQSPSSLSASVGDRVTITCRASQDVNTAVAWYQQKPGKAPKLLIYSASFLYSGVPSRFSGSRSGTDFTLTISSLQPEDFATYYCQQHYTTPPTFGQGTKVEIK
B9: SRP2900-B06 (antibody, IgG1, V domains shown)
VH: B6 VH with L29I, T30P, G31S, Y102H, Y103G
VL: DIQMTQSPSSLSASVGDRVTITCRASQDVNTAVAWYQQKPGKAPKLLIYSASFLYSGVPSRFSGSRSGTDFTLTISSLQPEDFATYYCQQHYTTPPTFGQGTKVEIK
B10: SRP2900-B11 (antibody, IgG1, V domains shown)
VH: B6 VH with L29I, T30P, G31A, Y54S, A57Y, T74A, V93A, Y102H, Y103G
VL: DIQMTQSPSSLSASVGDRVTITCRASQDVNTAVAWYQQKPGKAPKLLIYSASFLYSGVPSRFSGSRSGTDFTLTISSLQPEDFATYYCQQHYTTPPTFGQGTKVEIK
B11: SRP2900-C02 (antibody, IgG1, V domains shown)
VH: B6 VH with L29I, T30S, G31S
VL: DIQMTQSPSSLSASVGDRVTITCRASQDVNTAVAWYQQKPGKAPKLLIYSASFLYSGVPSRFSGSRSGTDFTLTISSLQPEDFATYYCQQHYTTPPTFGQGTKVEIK
B12: SRP2900-A09 (antibody, IgG1, V domains shown)
VH: B6 VH with L29I, T30A, G31D
VL: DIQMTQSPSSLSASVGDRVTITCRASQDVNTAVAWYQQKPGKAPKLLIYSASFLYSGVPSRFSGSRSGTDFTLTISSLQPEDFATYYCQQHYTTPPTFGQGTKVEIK
B13: SRP2900-E04 (antibody, IgG1, V domains shown)
VH: B6 VH with L29I, T30P, G31D, N55S, A57S, Y59F, W108L
VL: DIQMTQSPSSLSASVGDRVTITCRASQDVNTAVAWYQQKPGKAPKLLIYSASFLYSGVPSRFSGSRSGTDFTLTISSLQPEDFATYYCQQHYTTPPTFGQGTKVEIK
B14: SRP2900-B10 (antibody, IgG1, V domains shown)
VH: B6 VH with L29I, T30P, G31A, A57S
VL: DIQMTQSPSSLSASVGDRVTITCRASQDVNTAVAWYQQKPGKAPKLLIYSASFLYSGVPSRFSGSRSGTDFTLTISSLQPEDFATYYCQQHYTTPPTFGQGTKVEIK
B15: SRP2900-B03 (antibody, IgG1, V domains shown)
VH: B6 VH with A23S, L29I, T30A, G31D
VL: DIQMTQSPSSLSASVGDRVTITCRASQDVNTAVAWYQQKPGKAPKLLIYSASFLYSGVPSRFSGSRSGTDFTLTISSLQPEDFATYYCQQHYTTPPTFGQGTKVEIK
B16: SRP2900-C05 (antibody, IgG1, V domains shown)
VH: B6 VH with L29I, T30S, S75P, Y102H, Y103G
VL: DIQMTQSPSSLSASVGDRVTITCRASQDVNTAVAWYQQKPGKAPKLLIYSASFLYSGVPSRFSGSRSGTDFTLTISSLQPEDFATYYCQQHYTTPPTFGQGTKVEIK
B17: SRP2900-C07 (antibody, IgG1, V domains shown)
VH: B6 VH with L29I, T30S, W108F
VL: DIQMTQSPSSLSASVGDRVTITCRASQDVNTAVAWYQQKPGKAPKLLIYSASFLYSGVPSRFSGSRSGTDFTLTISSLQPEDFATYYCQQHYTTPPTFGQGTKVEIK
B18: SRP2900-C04 (antibody, IgG1, V domains shown)
VH: B6 VH with L29I, T30V, G31S
VL: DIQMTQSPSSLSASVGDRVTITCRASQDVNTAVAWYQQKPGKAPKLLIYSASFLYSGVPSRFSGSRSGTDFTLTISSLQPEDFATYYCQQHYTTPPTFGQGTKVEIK
B19: SRP2900-B08 (antibody, IgG1, V domains shown)
VH: B6 VH with L29I, T30P, G31S, A57Y, W108F
VL: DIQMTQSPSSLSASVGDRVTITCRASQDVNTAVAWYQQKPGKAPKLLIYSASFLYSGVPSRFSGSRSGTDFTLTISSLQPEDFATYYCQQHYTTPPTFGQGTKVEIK
B20: SRP2900-B04 (antibody, IgG1, V domains shown)
VH: B6 VH with L29I, T30S, G31E, Y50F, A57Y, Y59G, K65R
VL: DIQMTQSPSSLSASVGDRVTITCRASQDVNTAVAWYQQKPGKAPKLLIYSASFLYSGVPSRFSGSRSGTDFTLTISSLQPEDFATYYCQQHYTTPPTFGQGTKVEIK
B21: SRP2900-B05 (antibody, IgG1, V domains shown)
VH: B6 VH with L29I, T30S, Y103G, Y107F, W108L
VL: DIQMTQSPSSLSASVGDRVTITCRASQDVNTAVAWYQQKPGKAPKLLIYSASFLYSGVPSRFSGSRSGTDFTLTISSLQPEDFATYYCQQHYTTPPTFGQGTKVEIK
B22: SRP2900-B07 (antibody, IgG1, V domains shown)
VH: B6 VH with L29I, T30A, G31D, Y50F, A57Y, Y59G, T74N, Y102H, Y103G
VL: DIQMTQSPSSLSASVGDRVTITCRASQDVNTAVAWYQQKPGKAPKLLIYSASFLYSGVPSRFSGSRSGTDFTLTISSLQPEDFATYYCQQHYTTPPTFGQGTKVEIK
B23: SRP2900-B01 (antibody, IgG1, V domains shown)
VH: B6 VH with L29I, T30S, W108L
VL: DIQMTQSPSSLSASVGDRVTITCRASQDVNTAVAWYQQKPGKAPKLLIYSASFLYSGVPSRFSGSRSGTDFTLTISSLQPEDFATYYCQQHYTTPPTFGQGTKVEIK
B24: SRP2900-B09 (antibody, IgG1, V domains shown)
VH: B6 VH with L29I, T30S, G31Q, Y50F, A57Y, Y59N, K76E
VL: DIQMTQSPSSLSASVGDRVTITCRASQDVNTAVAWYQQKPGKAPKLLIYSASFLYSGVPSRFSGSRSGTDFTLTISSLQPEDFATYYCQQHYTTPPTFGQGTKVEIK
B25: SRP2900-C10 (antibody, IgG1, V domains shown)
VH: EVQLVESGGGLVQPGGSLRLSCAASGFTISDYWIHWVRQAPGKGLEWVGYIDPYNGYTYYADSVNGRFTISADTSKNTAYLQMNSLRAEDTAVYYCARDYGSYLVSLDYWGQGTLVTVSS
VL: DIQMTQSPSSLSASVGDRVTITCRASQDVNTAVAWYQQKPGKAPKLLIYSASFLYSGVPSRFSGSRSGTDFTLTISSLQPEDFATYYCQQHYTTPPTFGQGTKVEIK
B26: SRP2900-D03 (antibody, IgG1, V domains shown)
VH: B25 VH with D31Q, N65K, Y103L, L104Q, S106Q
VL: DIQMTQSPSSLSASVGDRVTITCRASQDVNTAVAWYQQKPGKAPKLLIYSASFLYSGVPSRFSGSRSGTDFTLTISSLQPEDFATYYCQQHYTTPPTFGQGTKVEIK
B27: SRP2900-D10 (antibody, IgG1, V domains shown)
VH: B25 VH with Y50F, Y54K, N65K, D73G, Y103L, L104Q, S106F, L107I
VL: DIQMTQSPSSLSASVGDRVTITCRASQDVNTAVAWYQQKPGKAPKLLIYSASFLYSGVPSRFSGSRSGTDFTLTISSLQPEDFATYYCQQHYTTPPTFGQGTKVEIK
B28: SRP2900-D04 (antibody, IgG1, V domains shown)
VH: B25 VH with Y50F, Y60H, N65E, Y103L, L104Q, S106Q
VL: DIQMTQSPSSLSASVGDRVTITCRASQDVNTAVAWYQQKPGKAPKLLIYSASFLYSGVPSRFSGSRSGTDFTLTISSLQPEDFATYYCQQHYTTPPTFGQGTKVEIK
B29: SRP2900-E03 (antibody, IgG1, V domains shown)
VH: B25 VH with Y54Q, Y57W, N65K, Y103L, L104E
VL: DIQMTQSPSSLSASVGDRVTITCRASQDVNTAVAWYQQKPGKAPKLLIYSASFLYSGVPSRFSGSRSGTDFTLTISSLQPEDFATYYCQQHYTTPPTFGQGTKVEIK
B30: SRP2900-D09 (antibody, IgG1, V domains shown)
VH: B25 VH with D31G, Y54A, Y57F, N65K, Y103I, L104Q, S106F
VL: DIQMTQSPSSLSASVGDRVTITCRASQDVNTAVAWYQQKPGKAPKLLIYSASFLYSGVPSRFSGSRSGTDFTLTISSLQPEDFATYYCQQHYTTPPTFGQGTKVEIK
B31: SRP2900-D11 (antibody, IgG1, V domains shown)
VH: B25 VH with N65K, S85P, Y103L, L104Q, S106Q
VL: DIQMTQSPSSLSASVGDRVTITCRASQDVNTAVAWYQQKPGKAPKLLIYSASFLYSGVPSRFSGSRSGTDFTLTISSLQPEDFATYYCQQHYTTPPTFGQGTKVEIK
B32: SRP2900-D01 (antibody, IgG1, V domains shown)
VH: B25 VH with S30H, D31E, Y54A, Y57F, N65K, Y103L, L104Q, S106F
VL: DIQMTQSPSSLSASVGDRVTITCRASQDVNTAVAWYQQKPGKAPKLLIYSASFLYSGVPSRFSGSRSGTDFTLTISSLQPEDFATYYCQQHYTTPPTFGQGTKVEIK
B33: SRP2900-D05 (antibody, IgG1, V domains shown)
VH: B25 VH with T28A, S30A, D31N, N65K, Y103L, L104E
VL: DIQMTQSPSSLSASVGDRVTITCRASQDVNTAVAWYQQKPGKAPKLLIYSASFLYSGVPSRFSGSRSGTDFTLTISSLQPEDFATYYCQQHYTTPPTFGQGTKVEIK
B34: SRP2900-D02 (antibody, IgG1, V domains shown)
VH: B25 VH with N65K, Y103L, L104Q, S106F, L107I, Y109H
VL: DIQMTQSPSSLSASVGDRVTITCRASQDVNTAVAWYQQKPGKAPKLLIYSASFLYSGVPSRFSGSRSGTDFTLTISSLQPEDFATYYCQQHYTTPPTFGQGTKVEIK
B35: SRP2900-E05 (antibody, IgG1, V domains shown)
VH: B25 VH with D31G, Y54A, Y57F, N65K, Y103V, L104R, S106F
VL: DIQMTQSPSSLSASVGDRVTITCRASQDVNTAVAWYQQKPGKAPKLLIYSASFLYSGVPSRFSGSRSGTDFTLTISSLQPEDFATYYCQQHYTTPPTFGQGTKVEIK

molecular target: tissue factor reagent of the Tissue Factor Activity Assay Kit (Abcam #ab108906) (UniProt P13726 33-295, limits assumed); experiment: cell-based or functional assay
Sequence (P13726 33-295 limits assumed): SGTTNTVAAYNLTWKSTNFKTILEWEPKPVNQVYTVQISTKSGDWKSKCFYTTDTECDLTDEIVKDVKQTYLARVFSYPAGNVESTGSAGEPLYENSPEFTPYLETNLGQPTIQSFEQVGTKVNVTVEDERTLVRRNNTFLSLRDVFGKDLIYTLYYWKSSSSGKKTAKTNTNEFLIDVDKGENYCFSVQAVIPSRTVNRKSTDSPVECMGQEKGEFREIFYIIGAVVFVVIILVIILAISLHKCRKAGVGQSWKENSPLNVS

| FX conversion (% inhibition), 1000 nM antibody | Binder |
| --- | --- |
| 31.7% | B1 |
| 46.2% | B2 |
| 47.4% | B3 |
| 44.9% | B4 |
| 40.4% | B5 |
| 41.9% | B6 |
| 27% | B7 |
| 37% | B8 |
| 28.2% | B9 |
| 22.4% | B10 |
| 29.6% | B11 |
| 46.9% | B12 |
| 25.9% | B13 |
| 33.3% | B14 |
| 44.1% | B15 |
| 35.7% | B16 |
| 41.6% | B17 |
| 36.7% | B18 |

| FX conversion (% inhibition), 1000 nM antibody | Binder |
| --- | --- |
| 43.3% | B19 |
| 46.3% | B20 |
| 35.5% | B21 |
| 42.2% | B22 |
| 38.7% | B23 |
| 35% | B24 |
| 42.1% | B25 |
| 37.4% | B26 |
| 37% | B27 |
| 46% | B28 |
| 48.7% | B29 |
| 30% | B30 |
| 51.4% | B31 |
| 32.7% | B32 |
| 33.6% | B33 |
| 32.1% | B34 |
| 23.5% | B35 |
